Test results: patent publication US20090143241

Columns and labels:
[1] = test system: IXP1, cyclic SGWYGRRH peptide
[2] = test system: GFP-tag (EGFP with the tmRNA peptide tag AANDENYALAA at the C terminus) [GFP: P42212]

Substance: ClpXP protease (E. coli ClpX6 with ClpP14)
- rate of GFP-tag proteolysis [1]: Inclusion of purified IXP1 reduced the rate of GFP-tag proteolysis
- KM of GFP-tag degradation (ClpXP with SspB) [2]: KM=0.74±0.04
- KM of GFP-tag degradation (ClpXP with SspB, no cyclic peptide) [2]: KM=0.74±0.04 µM
- kcat of GFP-tag degradation (ClpXP with SspB) [2]: kcat=1.79±0.08 min-1
- kcat of GFP-tag degradation (ClpXP with SspB, no cyclic peptide) [2]: kcat=1.79±0.08 min^-1

Substance: ClpX (E. coli), N-terminally His6-tagged
- rate of ClpX ATP hydrolysis [1]: The rate of ClpX ATP hydrolysis was not inhibited by IXP1 at concentrations up to 200 µM
- rate of ClpX ATP hydrolysis with GFP-tag included [1]: IXP1 still had no effect on ClpX activity
